Laboratory results published in patent US20210032351A1 (XDCEXPLORER SHANGHAI, published 2021).

Legend:
[1] = target: T1, human EGFRvIII-hFc protein (human, UniProt P00533 25-645); experiment: ELISA, EGFRvIII-hFc coated
T1 construct: extracellular domain; also called immunogen A; hFc-tagged EGFRvIII protein; not shown: human IgG Fc fragment (hFc) of the pCpC vector
Method: The purified humanized anti-EGFRvIII antibody obtained in example 12 is reacted with a human EGFRvIII-hFc protein.
The purified immunogen A (EGFRvIII-hFc) obtained in example 1 (for the preparation method, see step (I) in example 1) is diluted with PBS to a final concentration of 1.0 μg/mL, and then added to a 96-well ELISA plate at 100 μl/well. The plate is sealed with a plastic film and incubated at 4° C. overnight. The next day, the plate is washed twice with a plate washing solution [PBS+0.01% (v/v) Tween20], and added with a blocking solution [PBS+0.01% (v/v) Tween20+1% (w/w) BSA] for blocking 2 hours at room temperature. […] The plate is incubated for 2 hours at 37° C., and then washed 3 times with the plate washing solution [PBS+0.01% (v/v) Tween20]. The plate is added with an HRP (horseradish peroxidase) labeled secondary antibody (purchased from Sigma), incubated at 37° C. for 2 hours, and then washed 3 times with the plate washing solution [PBS+0.01% (v/v) Tween20]. The plate is added with 100 μl of TMB substrate/well, incubated for 30 minutes at room temperature, and then added with 100 μl of stopping solution (1.0N HCl)/well. A450 nm value is read using an ELISA plate reader (SpectraMax 384plus, purchased from Molecular Device).

[2] = target: T2, human EGFRvIII protein on the cell surface (human, UniProt P00533 25-1210); experiment: FACS on U87MG-EGFRvIII cells
T2 construct: whole, on cells; the cell line is named under assay; also called hEGFRvIII; U87MG-hEGFRvIII
Method: The preparation of U87MG-EGFRvIII required for FACS detection is as described in the preparation of the immunogen B in example 1. Normal human primary hepatocytes are purchased from BioreclamationIVT, and A431 tumor cells are purchased from ATCC. The recovered hepatocytes are directly used for FACS detection, and the recovered U87MG-EGFRvIII and A431 cells are subjected to an expanded culture to 90% confluence in a T-75 cell culture flask; the medium is sucked out, and the cells are washed twice with a HBSS buffer (Hanks Balanced Salt Solution) (purchased from Invitrogen), and then treated with an enzyme-free cell dissociation solution (Versene solution: purchased from Life Technology) and collected. The cells are washed twice with the HBSS buffer and are counted, and then the cells are diluted with the HBSS buffer to 2×10⁶ cells/ml, added with 1% goat serum blocking solution, with the percentage being the mass percentage, and incubated on ice for 30 minutes, and then centrifugally washed twice with the HBSS buffer. The collected cells are resuspended to 2×10⁶ cells/mL with an FACS buffer (HBSS+2% FBS, with the percentage being the volume percentage), added to a 96-well FACS reaction plate at 100 μL/well, then added with 100 μL/well of the purified EGFRvIII antibody (samples to be tested) obtained in example 12, and incubated on ice for 2 hours. The plate is centrifugally washed twice with the FACS buffer, added with 100 μL/well of a 1:1000 diluted fluorescence (Alexa 488) labeled secondary antibody (purchased from Invitrogen), and incubated on ice for 1 hour. The plate is centrifugally washed 3 times with the FACS buffer, added with 100 μL/well of a fixing solution [4% (v/v) paraformaldehyde] to resuspend the cells, and centrifugally washed twice with the FACS buffer after 10 minutes. The cells are resuspended in 100 μL of the FACS buffer, and the results are detected and analyzed by FACS (FACS Calibur, purchased from BD). Data analysis is performed by using the software (CellQuest) to obtain the mean fluorescence intensity (MFI) of the cells. Data is further analyzed by using the software (GraphPad Prism5) to perform data fitting and calculate EC50.

Row | Binder | EC50 [1] | Maximum OD450 value [1] | EC50 [2] | Maximum mean fluorescence intensity [2]
1 | Humanized antibody h63A10A7-17 (antibody, human IgG1, V domains shown, also called VH-g4/VL-g4) VH: QVQLVQSGAEVKKPGASVKVSCKASGYTFISFTMHWVKQRPGQGLEWIGYINPNSGYTKYNQKFKDKATLTRDTSTSTVYMELSSLRSEDTAVYYCTRGGGRGFAYWGQGTLVTVSS VL: DILMTQSPSSLSASVGDRVTITCHASQDINSNIGWLQQKPGKSFKALIYHGTNLEDGVPSRFSGSGSGADYTLTISSLQPEDFATYYCVQYAQFPFTFGQGTKLEIK | 0.01 nM | 3.71 OD450 | – | –
2 | Humanized antibody h63A10A7-18 (antibody, human IgG1, V domains shown, also called VH-g5/VL-g4) VH: QVQLVQSGAEVKKPGASVKVSCKASGYTFISFTMHWVKQRPGQGLEWIGYINPNSGYTKYNQKFKDKATLTADQSTSTAYMELSSLRSEDTAVYYCTRGGGRGFAYWGQGTLVTVSS VL: DILMTQSPSSLSASVGDRVTITCHASQDINSNIGWLQQKPGKSFKALIYHGTNLEDGVPSRFSGSGSGADYTLTISSLQPEDFATYYCVQYAQFPFTFGQGTKLEIK | 0.01 nM | 3.71 OD450 | – | –
3 | Humanized antibody h63A10A7-19 (antibody, human IgG1, V domains shown, also called VH-g6/VL-g4) VH: QVQLVQSGAEVKKPGASVKVSCKASGYTFISFTMHWVKQRPGQGLEWMGYINPNSGYTKYNQKFKDKATMTRDTSTSTVYMELSSLRSEDTAVYYCTRGGGRGFAYWGQGTLVTVSS VL: DILMTQSPSSLSASVGDRVTITCHASQDINSNIGWLQQKPGKSFKALIYHGTNLEDGVPSRFSGSGSGADYTLTISSLQPEDFATYYCVQYAQFPFTFGQGTKLEIK | 0.17 nM | 3.63 OD450 | 3.27 nM | 21100 MFI
4 | Humanized antibody h63A10A7-20 (antibody, human IgG1, V domains shown, also called VH-g7/VL-g4) VH: QVQLVQSGAEVKKPGASVKVSCKASGYTFISFTMHWVRQAPGQGLEWIGYINPNSGYTKYNQKFKDKATLTRDTSTSTVYMELSSLRSEDTAVYYCTRGGGRGFAYWGQGTLVTVSS VL: DILMTQSPSSLSASVGDRVTITCHASQDINSNIGWLQQKPGKSFKALIYHGTNLEDGVPSRFSGSGSGADYTLTISSLQPEDFATYYCVQYAQFPFTFGQGTKLEIK | 0.18 nM | 3.55 OD450 | 1.56 nM | 22600 MFI
5 | Humanized antibody h63A10A7-21 (antibody, human IgG1, V domains shown, also called VH-g8/VL-g4) VH: QVQLVQSGAEVKKPGASVKVSCKASGYTFISFTMHWVKQRPGQGLEWIGYINPNSGYTKYNQKFKDRVTLTRDTSTSTVYMELSSLRSEDTAVYYCTRGGGRGFAYWGQGTLVTVSS VL: DILMTQSPSSLSASVGDRVTITCHASQDINSNIGWLQQKPGKSFKALIYHGTNLEDGVPSRFSGSGSGADYTLTISSLQPEDFATYYCVQYAQFPFTFGQGTKLEIK | 0.17 nM | 3.6 OD450 | 2.34 nM | 23500 MFI
6 | Humanized antibody h63A10A7-22 (antibody, human IgG1, V domains shown, also called VH-g4/VL-g3) VH: QVQLVQSGAEVKKPGASVKVSCKASGYTFISFTMHWVKQRPGQGLEWIGYINPNSGYTKYNQKFKDKATLTRDTSTSTVYMELSSLRSEDTAVYYCTRGGGRGFAYWGQGTLVTVSS VL: DIQMTQSPSSLSASVGDRVTITCHASQDINSNIGWLQQKPGKSFKALIYHGTNLEDGVPSRFSGSGSGADYTLTISSLQPEDFATYYCVQYAQFPFTFGQGTKLEIK | 0.15 nM | 3.57 OD450 | 1.58 nM | 23500 MFI
7 | Humanized antibody h63A10A7-23 (antibody, human IgG1, V domains shown, also called VH-g4/VL-g5) VH: QVQLVQSGAEVKKPGASVKVSCKASGYTFISFTMHWVKQRPGQGLEWIGYINPNSGYTKYNQKFKDKATLTRDTSTSTVYMELSSLRSEDTAVYYCTRGGGRGFAYWGQGTLVTVSS VL: DILMTQSPSSLSASVGDRVTITCHASQDINSNIGWLQQKPGKAPKALIYHGTNLEDGVPSRFSGSGSGADYTLTISSLQPEDFATYYCVQYAQFPFTFGQGTKLEIK | 0.33 nM | 3.47 OD450 | 4.62 nM | 20200 MFI
8 | Humanized antibody h63A10A7-24 (antibody, human IgG1, V domains shown, also called VH-g4/VL-g6) VH: QVQLVQSGAEVKKPGASVKVSCKASGYTFISFTMHWVKQRPGQGLEWIGYINPNSGYTKYNQKFKDKATLTRDTSTSTVYMELSSLRSEDTAVYYCTRGGGRGFAYWGQGTLVTVSS VL: DILMTQSPSSLSASVGDRVTITCHASQDINSNIGWLQQKPGKSFKALIYHGTNLEDGVPSRFSGSGSGTDYTLTISSLQPEDFATYYCVQYAQFPFTFGQGTKLEIK | 0.15 nM | 3.67 OD450 | 1.83 nM | 24200 MFI
9 | Humanized antibody h63A10A7-25 (antibody, human IgG1, V domains shown, also called VH-g4/VL-g7) VH: QVQLVQSGAEVKKPGASVKVSCKASGYTFISFTMHWVKQRPGQGLEWIGYINPNSGYTKYNQKFKDKATLTRDTSTSTVYMELSSLRSEDTAVYYCTRGGGRGFAYWGQGTLVTVSS VL: DILMTQSPSSLSASVGDRVTITCHASQDINSNIGWYQQKPGKSFKALIYHGTNLEDGVPSRFSGSGSGADYTLTISSLQPEDFATYYCVQYAQFPFTFGQGTKLEIK | 0.17 nM | 3.61 OD450 | 1.32 nM | 24700 MFI
10 | Humanized antibody h63A10A7-26 (antibody, human IgG1, V domains shown, also called VH-g4/VL-g8) VH: QVQLVQSGAEVKKPGASVKVSCKASGYTFISFTMHWVKQRPGQGLEWIGYINPNSGYTKYNQKFKDKATLTRDTSTSTVYMELSSLRSEDTAVYYCTRGGGRGFAYWGQGTLVTVSS VL: DILMTQSPSSLSASVGDRVTITCHASQDINSNIGWYQQKPGKSFKALIYHGTNLEDGVPSRFSGSGSGADFTLTISSLQPEDFATYYCVQYAQFPFTFGQGTKLEIK | 0.16 nM | 3.65 OD450 | 1.79 nM | 23700 MFI
11 | Humanized antibody h63A10A7-37 (antibody, human IgG1, V domains shown, also called VH-g6/VL-g3) VH: QVQLVQSGAEVKKPGASVKVSCKASGYTFISFTMHWVKQRPGQGLEWMGYINPNSGYTKYNQKFKDKATMTRDTSTSTVYMELSSLRSEDTAVYYCTRGGGRGFAYWGQGTLVTVSS VL: DIQMTQSPSSLSASVGDRVTITCHASQDINSNIGWLQQKPGKSFKALIYHGTNLEDGVPSRFSGSGSGADYTLTISSLQPEDFATYYCVQYAQFPFTFGQGTKLEIK | 0.28 nM | 3.6 OD450 | 5.35 nM | 10200 MFI
12 | Humanized antibody h63A10A7-38 (antibody, human IgG1, V domains shown, also called VH-g7/VL-g3) VH: QVQLVQSGAEVKKPGASVKVSCKASGYTFISFTMHWVRQAPGQGLEWIGYINPNSGYTKYNQKFKDKATLTRDTSTSTVYMELSSLRSEDTAVYYCTRGGGRGFAYWGQGTLVTVSS VL: DIQMTQSPSSLSASVGDRVTITCHASQDINSNIGWLQQKPGKSFKALIYHGTNLEDGVPSRFSGSGSGADYTLTISSLQPEDFATYYCVQYAQFPFTFGQGTKLEIK | 0.22 nM | 3.7 OD450 | 3.03 nM | 10700 MFI
13 | Humanized antibody h63A10A7-39 (antibody, human IgG1, V domains shown, also called VH-g8/VL-g3) VH: QVQLVQSGAEVKKPGASVKVSCKASGYTFISFTMHWVKQRPGQGLEWIGYINPNSGYTKYNQKFKDRVTLTRDTSTSTVYMELSSLRSEDTAVYYCTRGGGRGFAYWGQGTLVTVSS VL: DIQMTQSPSSLSASVGDRVTITCHASQDINSNIGWLQQKPGKSFKALIYHGTNLEDGVPSRFSGSGSGADYTLTISSLQPEDFATYYCVQYAQFPFTFGQGTKLEIK | 0.24 nM | 3.6 OD450 | 4.1 nM | 10700 MFI
14 | Humanized antibody h75G7C6-10 (antibody, human IgG1, V domains shown, also called VH-g1/VL-g1) VH: QVQLVQSGAEVKKPGASVKVSCKASGYTFTDYNMDWVRQAPGQGLEWIGDINPNNADTIYNQKFKGRVTLTVDTSTSTVYMELSSLRSEDTAVYYCARGDYDGYYPVYYAMDYWGQGTTVTVSS VL: ENVLTQSPATLSLSPGERATLSCRASSSVSSSYLHWYQQKPGQAPRLLIFSTSNLAAGIPARFSGSGSGTDYTLTISSLEPEDFAVYYCQQYSGYPLTFGGGTKVEIK | 0.66 nM | 2.98 OD450 | 5.32 nM | 18000 MFI
